Experimental findings from patent US20040115660A1 (published 2004) are described below.

For one test, the target named is T1, mouse TIE2 (mouse, UniProt Q02858 23-1122).
T1 construct: whole, on cells
Description: co-immunoprecipitation from cotransfected 293T cells.

For another test, the target named is T2, human EGFR (human, UniProt P00533 25-1210).
T2 construct: whole, on cells
Described as above.

The next test concerns the target T3, mouse VEGFR2 (mouse, UniProt P35918 20-1345).
T3 construct: whole, on cells
The description is as above.

For another test, the target named is T4, human EphB3 (human, UniProt P54753 34-998).
T4 construct: whole, on cells; also called Eph receptor B3
T4 sequence (looked up): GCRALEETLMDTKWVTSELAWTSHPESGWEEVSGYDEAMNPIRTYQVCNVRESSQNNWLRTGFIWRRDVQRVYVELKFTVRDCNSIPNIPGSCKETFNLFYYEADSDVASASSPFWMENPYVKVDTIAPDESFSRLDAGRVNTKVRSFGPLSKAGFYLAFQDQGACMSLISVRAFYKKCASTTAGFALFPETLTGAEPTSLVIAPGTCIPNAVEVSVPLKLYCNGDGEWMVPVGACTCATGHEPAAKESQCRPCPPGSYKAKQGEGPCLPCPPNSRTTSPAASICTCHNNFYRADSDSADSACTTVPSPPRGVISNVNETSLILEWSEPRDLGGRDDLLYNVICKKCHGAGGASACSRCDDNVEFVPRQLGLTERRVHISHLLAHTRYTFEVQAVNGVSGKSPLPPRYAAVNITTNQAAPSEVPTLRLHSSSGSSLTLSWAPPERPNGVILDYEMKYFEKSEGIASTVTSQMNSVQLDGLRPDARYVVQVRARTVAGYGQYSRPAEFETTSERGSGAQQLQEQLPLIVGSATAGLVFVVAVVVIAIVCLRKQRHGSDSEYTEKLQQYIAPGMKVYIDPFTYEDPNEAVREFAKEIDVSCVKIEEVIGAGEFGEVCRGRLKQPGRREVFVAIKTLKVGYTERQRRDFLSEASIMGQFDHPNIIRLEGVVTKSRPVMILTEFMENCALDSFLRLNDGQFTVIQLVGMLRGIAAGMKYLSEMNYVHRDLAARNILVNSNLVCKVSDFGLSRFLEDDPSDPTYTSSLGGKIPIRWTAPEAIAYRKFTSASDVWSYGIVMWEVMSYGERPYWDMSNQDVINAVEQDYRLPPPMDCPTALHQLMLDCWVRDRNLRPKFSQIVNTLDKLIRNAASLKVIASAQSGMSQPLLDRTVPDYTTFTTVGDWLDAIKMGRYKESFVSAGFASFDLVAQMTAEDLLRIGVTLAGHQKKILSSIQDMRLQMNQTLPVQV
The test is described as follows: anti-Myc immunoprecipitation from 293T cells co-expressing RYK, AF-6 and EphB3 (FIG. 4b). As to the method:
Lysis and subsequent analysis of complexes in triple-transfected cells was performed as previously described (13). The inventors prepared embryonic and tissue lysates by Dounce homogenization. The inventors cleared lysates of insoluble debris by centrifugation, and performed immunoprecipitation from cleared lysates containing equal amounts of total protein as assessed by the BCA assay (Pierce). Immune complexes were captured by incubation with protein A-, G- or L-conjugated beads. The mouse anti-RYK monoclonal antibody (IgMₓ isotype⁵) was covalently coupled to CNBr-activated Sepharose 4B (Pharmacia) at 1 mg/ml packed beads for immunoprecipitation or cross-linked it in solution using a goat anti-mouse IgM (Jackson Immunoresearch). The inventors used anti-FLAG monoclonal antibody M2 (Sigma) for immunoprecipitation as an affinity gel and for Western blotting in a biotinylated form. Anti-AF-6 monoclonal antibody (clone 35) was obtained from Transduction Laboratories and anti-Myc monoclonal antibody (clone 9E10) from Zymed Laboratories. Immune complexes were collected by centrifugation and washed three times in HNTG, eluted in 20-50 μL of 2×SDS-PAGE sample buffer containing 10% v/v 2-mercaptoethanol, fractionated by SDS-PAGE and electroblotted to Immobilon P (Millipore) for Western analysis. […]

The next test deals with T5, endogenous mouse AF-6 (mouse, UniProt Q9QZQ1 1-1820, limits assumed).
T5 construct: also called Afadin
T5 sequence (Q9QZQ1 whole entry): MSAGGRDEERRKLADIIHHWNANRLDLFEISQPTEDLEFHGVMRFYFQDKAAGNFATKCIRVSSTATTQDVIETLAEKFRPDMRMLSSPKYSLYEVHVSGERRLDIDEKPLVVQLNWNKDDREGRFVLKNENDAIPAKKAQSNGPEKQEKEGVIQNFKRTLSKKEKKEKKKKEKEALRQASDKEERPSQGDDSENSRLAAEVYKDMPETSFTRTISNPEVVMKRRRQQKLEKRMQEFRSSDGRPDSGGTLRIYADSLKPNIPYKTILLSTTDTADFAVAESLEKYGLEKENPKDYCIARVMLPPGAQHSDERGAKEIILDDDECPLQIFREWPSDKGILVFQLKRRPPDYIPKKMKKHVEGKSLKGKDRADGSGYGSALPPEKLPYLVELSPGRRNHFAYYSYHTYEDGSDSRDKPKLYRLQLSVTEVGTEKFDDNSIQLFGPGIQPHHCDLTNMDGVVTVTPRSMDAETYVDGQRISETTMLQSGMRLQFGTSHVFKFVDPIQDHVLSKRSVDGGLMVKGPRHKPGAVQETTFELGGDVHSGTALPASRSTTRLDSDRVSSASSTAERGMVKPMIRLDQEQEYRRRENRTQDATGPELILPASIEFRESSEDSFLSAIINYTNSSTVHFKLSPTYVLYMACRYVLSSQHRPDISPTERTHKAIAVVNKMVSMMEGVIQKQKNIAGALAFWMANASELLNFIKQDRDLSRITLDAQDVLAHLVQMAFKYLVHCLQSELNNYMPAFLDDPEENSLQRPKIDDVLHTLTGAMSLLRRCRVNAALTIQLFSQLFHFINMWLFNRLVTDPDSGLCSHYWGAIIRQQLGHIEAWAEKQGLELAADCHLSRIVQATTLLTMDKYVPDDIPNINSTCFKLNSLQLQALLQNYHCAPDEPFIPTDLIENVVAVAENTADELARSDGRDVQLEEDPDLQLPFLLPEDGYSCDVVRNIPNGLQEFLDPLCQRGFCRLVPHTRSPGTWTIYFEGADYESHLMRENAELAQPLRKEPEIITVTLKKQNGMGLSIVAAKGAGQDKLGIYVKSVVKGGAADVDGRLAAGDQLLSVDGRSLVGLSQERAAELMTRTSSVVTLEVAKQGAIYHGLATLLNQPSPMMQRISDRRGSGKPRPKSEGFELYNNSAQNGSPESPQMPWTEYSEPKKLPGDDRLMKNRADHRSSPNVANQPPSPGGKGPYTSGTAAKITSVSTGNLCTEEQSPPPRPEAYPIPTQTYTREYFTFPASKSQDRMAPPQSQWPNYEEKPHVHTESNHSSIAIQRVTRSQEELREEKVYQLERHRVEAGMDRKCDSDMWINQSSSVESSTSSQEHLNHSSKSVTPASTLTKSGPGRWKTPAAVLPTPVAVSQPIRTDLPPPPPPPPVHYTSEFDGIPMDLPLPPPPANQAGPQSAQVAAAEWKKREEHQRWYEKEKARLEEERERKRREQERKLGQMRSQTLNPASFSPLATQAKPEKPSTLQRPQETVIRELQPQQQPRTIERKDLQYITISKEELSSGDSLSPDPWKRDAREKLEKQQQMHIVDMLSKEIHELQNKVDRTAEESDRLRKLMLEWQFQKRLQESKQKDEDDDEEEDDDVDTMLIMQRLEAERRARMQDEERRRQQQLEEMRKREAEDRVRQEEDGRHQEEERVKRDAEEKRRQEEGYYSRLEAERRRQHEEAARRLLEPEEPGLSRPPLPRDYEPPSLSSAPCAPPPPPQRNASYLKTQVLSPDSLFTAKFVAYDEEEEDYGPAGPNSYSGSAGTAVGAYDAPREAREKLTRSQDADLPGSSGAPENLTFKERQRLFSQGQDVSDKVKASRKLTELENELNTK
The test is described as follows: co-immunoprecipitation from mouse tissue lysates, both directions (FIG. 4c).

T1 sequence (Q02858 23-1122): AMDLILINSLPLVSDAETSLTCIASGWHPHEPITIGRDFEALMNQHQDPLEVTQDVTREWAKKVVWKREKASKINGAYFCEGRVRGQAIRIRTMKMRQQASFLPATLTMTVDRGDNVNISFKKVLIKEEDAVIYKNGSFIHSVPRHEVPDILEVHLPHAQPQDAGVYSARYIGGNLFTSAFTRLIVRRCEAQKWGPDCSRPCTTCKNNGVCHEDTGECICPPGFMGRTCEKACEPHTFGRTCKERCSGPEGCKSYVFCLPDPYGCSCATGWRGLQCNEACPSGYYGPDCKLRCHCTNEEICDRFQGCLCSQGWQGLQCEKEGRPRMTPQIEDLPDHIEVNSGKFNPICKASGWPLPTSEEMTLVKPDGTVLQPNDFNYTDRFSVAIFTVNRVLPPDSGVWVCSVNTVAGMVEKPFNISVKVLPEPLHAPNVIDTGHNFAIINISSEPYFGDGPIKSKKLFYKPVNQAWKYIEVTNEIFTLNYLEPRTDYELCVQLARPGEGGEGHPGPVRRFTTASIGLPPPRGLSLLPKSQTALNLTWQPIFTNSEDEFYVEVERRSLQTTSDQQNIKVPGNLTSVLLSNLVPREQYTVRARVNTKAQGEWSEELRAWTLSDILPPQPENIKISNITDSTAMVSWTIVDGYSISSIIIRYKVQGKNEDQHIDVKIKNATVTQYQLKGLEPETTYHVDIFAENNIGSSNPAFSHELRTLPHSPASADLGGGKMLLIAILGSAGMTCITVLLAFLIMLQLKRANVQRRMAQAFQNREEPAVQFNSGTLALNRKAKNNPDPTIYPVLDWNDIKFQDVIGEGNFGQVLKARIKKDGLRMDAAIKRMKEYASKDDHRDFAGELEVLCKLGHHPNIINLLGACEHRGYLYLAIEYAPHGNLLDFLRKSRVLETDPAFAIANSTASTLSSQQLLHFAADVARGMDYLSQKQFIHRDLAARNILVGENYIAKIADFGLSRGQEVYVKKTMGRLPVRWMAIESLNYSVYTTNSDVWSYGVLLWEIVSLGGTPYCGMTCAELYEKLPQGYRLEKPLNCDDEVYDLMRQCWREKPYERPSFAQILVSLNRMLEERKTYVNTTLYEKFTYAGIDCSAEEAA
T3 sequence (P35918 20-1345): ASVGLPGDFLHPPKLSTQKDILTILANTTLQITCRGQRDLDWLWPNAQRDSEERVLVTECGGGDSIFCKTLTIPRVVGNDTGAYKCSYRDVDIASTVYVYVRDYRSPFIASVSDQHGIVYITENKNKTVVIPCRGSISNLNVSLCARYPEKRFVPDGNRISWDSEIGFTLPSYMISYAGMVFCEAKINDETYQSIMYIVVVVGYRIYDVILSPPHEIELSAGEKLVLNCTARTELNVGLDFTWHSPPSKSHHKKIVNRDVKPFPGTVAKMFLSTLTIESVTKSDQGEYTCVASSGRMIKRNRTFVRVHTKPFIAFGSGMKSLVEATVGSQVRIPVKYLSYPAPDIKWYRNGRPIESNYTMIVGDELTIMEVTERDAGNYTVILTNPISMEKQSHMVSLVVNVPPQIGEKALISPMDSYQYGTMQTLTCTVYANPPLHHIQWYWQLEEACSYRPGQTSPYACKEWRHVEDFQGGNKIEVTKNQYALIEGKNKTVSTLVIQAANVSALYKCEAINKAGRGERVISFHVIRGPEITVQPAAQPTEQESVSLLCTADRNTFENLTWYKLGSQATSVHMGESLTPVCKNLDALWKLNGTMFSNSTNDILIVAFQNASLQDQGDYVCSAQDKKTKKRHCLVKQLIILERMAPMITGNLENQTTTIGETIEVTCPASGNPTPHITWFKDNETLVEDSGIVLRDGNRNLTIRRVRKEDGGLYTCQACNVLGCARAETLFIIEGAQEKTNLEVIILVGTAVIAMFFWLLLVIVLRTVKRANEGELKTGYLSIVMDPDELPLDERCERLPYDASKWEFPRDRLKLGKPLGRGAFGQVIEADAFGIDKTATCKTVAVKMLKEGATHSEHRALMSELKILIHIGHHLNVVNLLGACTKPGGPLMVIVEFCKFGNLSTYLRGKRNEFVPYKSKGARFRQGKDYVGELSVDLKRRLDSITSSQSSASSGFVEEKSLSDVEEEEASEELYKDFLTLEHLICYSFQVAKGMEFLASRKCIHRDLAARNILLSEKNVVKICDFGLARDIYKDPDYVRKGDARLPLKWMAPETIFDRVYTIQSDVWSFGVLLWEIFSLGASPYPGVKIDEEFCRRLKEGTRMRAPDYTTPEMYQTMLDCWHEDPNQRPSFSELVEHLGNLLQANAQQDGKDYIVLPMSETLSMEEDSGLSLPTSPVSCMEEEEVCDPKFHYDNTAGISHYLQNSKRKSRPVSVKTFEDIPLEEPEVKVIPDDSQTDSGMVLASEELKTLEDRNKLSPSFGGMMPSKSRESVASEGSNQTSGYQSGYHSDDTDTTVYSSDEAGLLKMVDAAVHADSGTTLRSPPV

B1: Myc2.RYK (double Myc epitope-tagged mouse RYK) (receptor, UniProt Q01887 35-594, looked up, not shown: small tags and cut ends)
chain: RSPALAAAPAGPSVSLYLSEDEVRRLLGLDAELYYVRNDLISHYALSFNLLVPSETNFLHFTWHAKSKVEYKLGFQVDNFVAMGMPQVNISAQGEVPRTLSVFRVELSCTGKVDSEVMILMQLNLTVNSSKNFTVLNFKRRKMCYKKLEEVKTSALDKNTSRTIYDPVHAAPTTSTRVFYISVGVCCAVIFLVAIILAVLHLHSMKRIELDDSISASSSSQGLSQPSTQTTQYLRADTPNNATPITSSSGYPTLRIEKNDLRSVTLLEAKAKVKDIAISRERITLKDVLQEGTFGRIFHGILVDEKDPNKEKQTFVKTVKDQASEVQVTMMLTESCKLRGLHHRNLLPITHVCIEEGEKPMVVLPYMNWGNLKLFLRQCKLVEANNPQAISQQDLVHMAIQIACGMSYLARREVIHRDLAARNCVIDDTLQVKITDNALSRDLFPMDYHCLGDNENRPVRWMALESLVNNEFSSASDVWAFGVTLWELMTLGQTPYVDIDPFEMAAYLKDGYRIAQPINCPDELFAVMACCWALDPEERPKFQQLVQCLTEFHAALGAYV
notes: mature; also called wild-type RYK
B1: the binding result with mouse TIE2 is reported as “no binding”; with human EGFR, “no binding”; with mouse VEGFR2, “no binding”; with human EphB3 it was “binds”.

B2: endogenous mouse RYK (receptor, UniProt Q01887 35-594, looked up)
chain: B1 chain
notes: also called RYK beta subunit
Turning to B2, in the test with endogenous mouse AF-6, the binding result was “binds”.
